Measured values: patent publication US20220177583A1 (University of California, published 2022)

T1: human CLDN6, endogenously expressed on cancer cell lines (human, UniProt P56747 1-220)
T1 construct: also called Endogenous CLDN6+; CLDN6 on ARK2, OVCA429, UMUC4 cells
T1 sequence: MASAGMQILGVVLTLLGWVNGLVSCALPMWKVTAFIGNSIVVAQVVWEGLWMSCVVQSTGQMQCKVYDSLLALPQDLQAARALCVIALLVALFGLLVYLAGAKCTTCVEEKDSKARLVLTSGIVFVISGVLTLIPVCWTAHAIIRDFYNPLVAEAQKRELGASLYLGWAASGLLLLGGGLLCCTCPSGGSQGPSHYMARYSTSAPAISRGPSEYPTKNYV

T2: mouse CLDN6 fused to GFP, expressed on engineered HEK293T cells (mouse, UniProt Q9Z262 1-219)
T2 construct: whole, on cells; also called HEK293T-CLDN6-mGFP Artificial CLDN6+ (mouse); murine CLDN6; not shown: GFP tag
T2 sequence (looked up): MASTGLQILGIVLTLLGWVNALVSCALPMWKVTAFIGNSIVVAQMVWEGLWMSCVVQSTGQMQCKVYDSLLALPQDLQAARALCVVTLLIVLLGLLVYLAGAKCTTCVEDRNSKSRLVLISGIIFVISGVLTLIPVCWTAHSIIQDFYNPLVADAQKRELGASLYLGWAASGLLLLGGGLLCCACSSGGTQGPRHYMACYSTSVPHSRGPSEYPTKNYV


Key:
[1] = target: T1, human CLDN6, endogenously expressed on …; experiment: flow cytometry on UMUC4 cells (Positive Cell Line), anti-human IgG Fc secondary antibody
[2] = target: T1, human CLDN6, endogenously expressed on …; experiment: FACS, ARK2 cells, 1.5 ug Ab
[3] = target: T2, mouse CLDN6 fused to GFP, expressed on …; experiment: FACS, 293T clone with mouse CLDN6
[4] = target: T1, human CLDN6, endogenously expressed on …; experiment: FACS, ARK2 cells, 0.3 ug Ab
[5] = target: T1, human CLDN6, endogenously expressed on …; experiment: FACS, OVCA429 cells, 1.5 ug Ab

Binder | flow cytometry signal at 0.1µg Ab/Sample [1] | flow cytometry signal at 1µg Ab/Sample [1] | FACS signal [2] | FACS signal [3] | FACS signal [4] | FACS signal [5]
AB3-7 conjugated to MC-VC-PAB-MMAE (conventional) (antibody, V domains shown, MC-VC-PAB-MMAE conjugated to the antibody, heterogeneous (conventional); sites not stated, Antibody-drug conjugate of humanized AB3-7 (WuXi Biologics); also called CLDN6 ADC; ADC-23 (conventional)) VH: EVQLLESGGGLVQPGGSMRLSCAASGFTFSNYWMNWVRQAPGKGLEWVAQIRLKSDNYATHYADSVKGRFTISRDDSKNTVYLQMNSLRAEDTGVYYCNDGPPSGSWGQGTLLTVSS VL: DIQMTQSPSSLSASVGDRVTITCRISENIYSYLAWYQQKPGKAPKLLVYNAKILVEGVPSRFSGSGSGTDFTLTISSLQPEDFGTYYCQHHYTVPWTFGQGTKLEIK | 8910 | 28800 | – | – | – | –
AB3-7 conjugated to MC-VC-PAB-MMAE (D4 technology) (antibody, V domains shown, MC-VC-PAB-MMAE conjugated to the antibody, substantially 4 drugs per antibody (D4); sites not stated, Antibody-drug conjugate of humanized AB3-7; also called CLDN6 ADC; ADC-23 (D4 technology)) VH: EVQLLESGGGLVQPGGSMRLSCAASGFTFSNYWMNWVRQAPGKGLEWVAQIRLKSDNYATHYADSVKGRFTISRDDSKNTVYLQMNSLRAEDTGVYYCNDGPPSGSWGQGTLLTVSS VL: DIQMTQSPSSLSASVGDRVTITCRISENIYSYLAWYQQKPGKAPKLLVYNAKILVEGVPSRFSGSGSGTDFTLTISSLQPEDFGTYYCQHHYTVPWTFGQGTKLEIK | 9450 | 25900 | – | – | – | –
AB3-7 conjugated to MC-GGFG-MMAE (D4 technology) (antibody, V domains shown, MC-GGFG-MMAE conjugated to the antibody (D4); sites not stated, Antibody-drug conjugate of humanized AB3-7; also called CLDN6 ADC) VH: EVQLLESGGGLVQPGGSMRLSCAASGFTFSNYWMNWVRQAPGKGLEWVAQIRLKSDNYATHYADSVKGRFTISRDDSKNTVYLQMNSLRAEDTGVYYCNDGPPSGSWGQGTLLTVSS VL: DIQMTQSPSSLSASVGDRVTITCRISENIYSYLAWYQQKPGKAPKLLVYNAKILVEGVPSRFSGSGSGTDFTLTISSLQPEDFGTYYCQHHYTVPWTFGQGTKLEIK | 8790 | 31600 | – | – | – | –
AB3-7 conjugated to CL2A-SN38 (conventional) (antibody, V domains shown, CL2A-SN38 conjugated to the antibody, heterogeneous (conventional); sites not stated, Antibody-drug conjugate of humanized AB3-7; also called CLDN6 ADC) VH: EVQLLESGGGLVQPGGSMRLSCAASGFTFSNYWMNWVRQAPGKGLEWVAQIRLKSDNYATHYADSVKGRFTISRDDSKNTVYLQMNSLRAEDTGVYYCNDGPPSGSWGQGTLLTVSS VL: DIQMTQSPSSLSASVGDRVTITCRISENIYSYLAWYQQKPGKAPKLLVYNAKILVEGVPSRFSGSGSGTDFTLTISSLQPEDFGTYYCQHHYTVPWTFGQGTKLEIK | 9990 | 33800 | – | – | – | –
AB3-7 conjugated to CL2A-SN38 (D4 technology) (antibody, V domains shown, CL2A-SN38 conjugated to the antibody (D4); sites not stated, Antibody-drug conjugate of humanized AB3-7; also called CLDN6 ADC) VH: EVQLLESGGGLVQPGGSMRLSCAASGFTFSNYWMNWVRQAPGKGLEWVAQIRLKSDNYATHYADSVKGRFTISRDDSKNTVYLQMNSLRAEDTGVYYCNDGPPSGSWGQGTLLTVSS VL: DIQMTQSPSSLSASVGDRVTITCRISENIYSYLAWYQQKPGKAPKLLVYNAKILVEGVPSRFSGSGSGTDFTLTISSLQPEDFGTYYCQHHYTVPWTFGQGTKLEIK | 9140 | 34600 | – | – | – | –
AB3-7 conjugated to MC-GGFG-DXD (antibody, V domains shown, MC-GGFG-DXD conjugated to the antibody; sites not stated, Antibody-drug conjugate of humanized AB3-7; also called CLDN6 ADC) VH: EVQLLESGGGLVQPGGSMRLSCAASGFTFSNYWMNWVRQAPGKGLEWVAQIRLKSDNYATHYADSVKGRFTISRDDSKNTVYLQMNSLRAEDTGVYYCNDGPPSGSWGQGTLLTVSS VL: DIQMTQSPSSLSASVGDRVTITCRISENIYSYLAWYQQKPGKAPKLLVYNAKILVEGVPSRFSGSGSGTDFTLTISSLQPEDFGTYYCQHHYTVPWTFGQGTKLEIK | 10500 | 32800 | – | – | – | –
AB3-7 conjugated to MC-VC-PAB-DXD (antibody, V domains shown, MC-VC-PAB-DXD conjugated to the antibody; sites not stated, Antibody-drug conjugate of humanized AB3-7; also called CLDN6 ADC) VH: EVQLLESGGGLVQPGGSMRLSCAASGFTFSNYWMNWVRQAPGKGLEWVAQIRLKSDNYATHYADSVKGRFTISRDDSKNTVYLQMNSLRAEDTGVYYCNDGPPSGSWGQGTLLTVSS VL: DIQMTQSPSSLSASVGDRVTITCRISENIYSYLAWYQQKPGKAPKLLVYNAKILVEGVPSRFSGSGSGTDFTLTISSLQPEDFGTYYCQHHYTVPWTFGQGTKLEIK | 10800 | 32600 | – | – | – | –
AB3-7 (antibody, V domains shown, Humanized; also called humanized AB3-7; AB23) VH: EVQLLESGGGLVQPGGSMRLSCAASGFTFSNYWMNWVRQAPGKGLEWVAQIRLKSDNYATHYADSVKGRFTISRDDSKNTVYLQMNSLRAEDTGVYYCNDGPPSGSWGQGTLLTVSS VL: DIQMTQSPSSLSASVGDRVTITCRISENIYSYLAWYQQKPGKAPKLLVYNAKILVEGVPSRFSGSGSGTDFTLTISSLQPEDFGTYYCQHHYTVPWTFGQGTKLEIK | 8820 | 27300 | 90400 | 56100 | 36000 | –
AB4-5 (antibody, V domains shown, Humanized; also called humanized AB 4-5) VH: QVQLVQSGAEVKKPGASVKMSCKASGYTFTSYTMHWIRQAPGQGQEWIGYINPSSTYTHYAQKFQGRATLTADTSTSTAYMELSSLRSEDTAVYYCSRGELGGFAYWGQGTLVTVSS VL: DVVMTQSPLSLPVTLGQPASISCRSSQSLVHSDGNTYLNWYQQRPGQSPRLLIYKVSNRFSGVPDRFSGSGSGTDFTLKISRVEAEDVGVYYCSQSTHVPYTFGQGTKLEIK | – | – | 1200 | 2000 | 967 | 1350
AB9-4 (antibody, V domains shown, Humanized; also called humanized AB 9-4) VH: QVQLVQSGAEVKKPGASVKMSCKASGYRFTDYNMHWVRQAPGQGLEWIGYINPNNGGTNYAQKFQGRATLTVDTSTSTAYMELSSLRSEDTAVYYCARDYLYFFDCWGQGTLLTVSS VL: DIQMTQSPSSLSASVGDRVTITCRASQTIGTWLAWYQQKPGKAPKLLIYAAASLADGVPSRFSGSGSGTDFTFTISSLQPEDFVTYYCQQLYSIPRTFGQGTKLEIK | – | – | 1550 | 1710 | 1120 | 1110
AB11-chim (antibody, V domains shown, Parental antibody prior to humanization ('chim'); also called pre-humanized form of AB11) VH: DVQLVESGGGLVQPRGSRKLSCAASGFTFSSFGMHWVRQAPEKGLEWVAYISSDSRTIYYADTVKGRFTISRDNPTNTLFLQMTSLRSEDTAMYYCARDYGRTYEAYWGQGTLVTVSA VL: DIVLTQSPASLAVSLGQRATISCRASKSVSTSGYSYIHWYQQKPGQPPKLLIYLASNLESGVPARFSGSGSGTDFTLNIHPVEEEDAATYYCQHSRELPLTFGAGTKLELK | – | – | 1260 | 5490 | 1320 | 2440
AB11-2 (antibody, V domains shown, Humanized; also called humanized AB 11-2) VH: EVQLVESGGGLVQPGGSLRLSCAASGFTFSSFGMHWVRQAPGKGLEWVAYISSDSRTIYYADSVKGRFTISRDNAKNSLYLQMNSLRAEDTAVYYCARDYGRTYEAYWGQGTLVTVSS VL: DIVMTQSPDSLAVSLGERATINCRASKSVSTSGYSYIHWYQQKPGQPPKLLIYLASNLESGVPDRFSGSGSGTDFTLTISSLQAEDVAVYYCQHSRELPLTFGQGTKLEIK | – | – | 1940 | 7160 | 1400 | 2690
AB11-3 (antibody, V domains shown, Humanized; also called humanized AB 11-3) VH: EVQLVESGGGLVQPGGSLRLSCAASGFTFSSFGMHWVRQAPGKGLEWVAYISSDSRTIYYADSVKGRFTISRDNAKNSLYLQMNSLRAEDTAVYYCARDYGRTYEAYWGQGTLVTVSS VL: DIVLTQSPDSLAVSLGERATINCRASKSVSTSGYSYIHWYQQKPGQPPKLLIYLASNLESGVPDRFSGSGSGTDFTLTISSVQAEDVAVYYCQHSRELPLTFGQGTKLELK | – | – | 1540 | 5520 | 1320 | 2200
